Assay: yeast display, Sf9 membrane polyspecificity reagent, FACS + sequencing; frameworks hold sequencing errors
In short: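 Nanobodies came from a synthetic yeast display library in Saccharomyces cerevisiae BJ5465, induced with galactose for 36–48 hours and stained for 1 hour at 4 °C with 10% biotinylated, detergent-solubilized Sf9 membrane reagent. Cells were enriched on streptavidin microbeads and then FACS-sorted, with low and high (top ~1%) gates set on anti-HA fluorescence for expression and streptavidin fluorescence for reagent binding. Each polyreactivity label reflects the gate a clone came from. Genes were amplified by colony PCR, sequenced by MiSeq 2 × 250 and filtered by CDR length.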

| Sequence | polyreactivity (PSR sort gate) |
| --- | --- |
| QVQLVESGGGLVQAGGSLRLSCAASGSISGINAMGWYRQAPGKERELVAAISRRAGSTYYADSVKGRFTISRDNAKNTVYLQMNSLKPEDTAVYYCAAENFYPYTYYASDYWGQGTQVTVSS | high polyreactivity |
| QVQLVESGGGLVQAGGSLRLSCAASGSISGIYAMGWYRQAPGKERELVAAISRGGSTNYADSVKGRFTISRDNAKNTVYLQMNSLKPEDTAVYYCAARTAYYPYRQRYYYWGQGTQVTVSS | high polyreactivity |
| QVQLVESGGGLVQAGGSLRLSCAASGSISGSYAMGWYRQAPGKERELVASITTSGGGTYYADSVKGRFTISRDNAKNTVYLQMNSLKPEDTAVFYCAVEYGYPYAGLDYWGQGTQVTVSS | low polyreactivity |
| QVQLVESGGGLVQAGGSLRLSCAASGSISGYNAMGWYRQAPGQERELVAAIYRSDGTDYADSVKGRFTISRDNAKNTVYLQMNSLNPEDTAVYYCNADKWSVVGYVRGFYRDDYWGQGTQVTVSS | low polyreactivity |
| QVQLVESGGGLVQAGGSLRLSCAASGSISGYYAMGGYRQAPGKERELVASIRYTGARTYYADSVKGRFTISRDNAKNTVYLQMNSLKPEDTAVYYCAADVKRDRVWGGDYWGQGTQVTVSS | low polyreactivity |
| QVQLVESGGGLVQAGGSLRLSCAASGSISGYYAMGWYSQAPVKERELVASIRYTGARTYYADSVKGRFTISRDNAQNTVYLQMNSLKPEDTAVYYCAADVKRDRVWGGDYWGQGTQVTVSS | low polyreactivity |
| QVQLVESGGGLVQAGGSLRLSCAASGSISKINAMGWYRQAPGKERELVAAINTGDSTYYADSVKGRFTISRDNAKNTVYLKMNSLKPVDSAVYYCAAEGSPTGYDYWGQGTQVTVTS | low polyreactivity |
| QVQLVESGGGLVQAGGSLRLSCAASGSISLVYAMGWYRQATGKERELVAVINHADDTSYADSVKGRFTISRDNAKNTVYLQMNSLKPEDTADYYCAAESSYFVALTQFYTVEFYYWGQGTQLTVSS | low polyreactivity |
| QVQLVESGGGLVQAGGSLRLSCAASGSISNQYVMGWYRQAPGKERELVAAIRVIGGSTSYADSVKGRFTISRDNAKNTVYLQMNSLKPEDTAVYYCAADWAWTISDGYYYGYPQYDYWGQGTQVTVSS | high polyreactivity |
| QVQLVESGGGLVQAGGSLRLSCAASGSISPANTMGWYRQAPGKEREFVAGISRRGGRTYYADSVKGRFTISRDNAKNTVYLQMNSLIPEDTAVYYCATALIVRGPSRYEYWGQGTQVTVSS | high polyreactivity |
| QVQLVESGGGLVQAGGSLRLSCAASGSISPQNVMGWYRQAPGKERELVAAITGGGSTNYADSVKGRFTISRDNAKNTVYLQMNSLKPEDTAVYYCAVYRRYLPYDYWGQGTQVTVSS | low polyreactivity |
| QVQLVESGGGLVQAGGSLRLSCAASGSISRVYTMGWYRQAPGKQRELVAVIRRSSGSTYYADSLKGRFTISRDNAKNTVYFQMNSLKPEDTAVYYCAARGYYSGQTTIGMDYWGQGTQVTVSS | low polyreactivity |
| QVQLVESGGGLVQAGGSLRLSCAASGSISSVYGMGWYRQAPGKERELVAAITSNGGSTYYADSVKGRFTISRDNAKNTVYLQMNSMKPEDTAVYYCAAKYGSRGYYSRGRYYWGQGTQVTVSS | high polyreactivity |
| QVQLVESGGGLVQAGGSLRLSCAASGSISSYAMGWSRQAPGKERELVASITWHGGGTYYADSVKGRFTISRDNAKNTVYLQMNSLKPEDTAVYYCAKDNYLDPPYFYRFAGYDYCGQGTQVTVSS | low polyreactivity |
| QVQLVESGGGLVQAGGSLRLSCAASGSISTYYAMGWYRPAPGKERDLVAAISKSGGSKYYADSVKGRFTISRDNAKNTVYLQMNSLKPEDTAVYYCAARYKGRAFWMDYWGQGTQVTVSS | high polyreactivity |
| QVQLVESGGGLVQAGGSLRLSCAASGSISVANAMGWYRQAPGKERELVAGITSSGSTYYADSVKGRFTISRDNAKNTVYLQMNSLKPEDTAVYYCNADVHYSTFYTVVVSLYYWGQGSQVTVSS | low polyreactivity |
| QVQLVESGGGLVQAGGSLRLSCAASGSISVVNMGWYRQAPGKERELVASITSSGSTTYADSVKGRFTISRDNAKNTVYLQMNSLKPEDTAVYYCAADVGTDYTYQHPAGAAYDYWGQGTQVTVSS | low polyreactivity |
| QVQLVESGGGLVQAGGSLRLSCAASGSISVYNAMGWYRQAPGKERELVAAISWSGGRTSYADSVKGRFTISRDNAKITVYLQMNSLKPEDTALYYCAADELTVLWDEDYWGQGTQVTVSS | low polyreactivity |
| QVQLVESGGGLVQAGGSLRLSCAASGSISVYYAMGRYRQAPGKERELVASIRYTGGRTYYADSVKGRFTISRDNAKNTVYLQMNSLKPEDTAVYYCAADVKRDRVWGGDYWGHGTQVTVSS | low polyreactivity |
| QVQLVESGGGLVQAGGSLRLSCAASGSISWYYAMGWYRQAPGKERELVAAISDSGGDTYYADSVKGRFTISRDNAKNTVYLQMNSLKPEDTAVYYCAAQYRGSYRTTYDYWGQGTQVTVSS | low polyreactivity |
| QVQLVESGGGLVQAGGSLRLSCAASGSISYLYAMGWYRQAPGKERELVAAISRSGASTYYADSVKGRFTISRDNAKNTVYLQMNSLKPEDTAVYYCAAYKIWGRVRYDYWGQGTQVTVSS | low polyreactivity |
| QVQLVESGGGLVQAGGSLRLSCAASGSISYQNAMGWYRQATGKERELVAAISGDGDSMYYADSVKGRFTISRDNAKNTVYLQMNSLKPEDTAVYYCAAEPNVYFSVFVLFPSDYWGQGTQVTVSS | low polyreactivity |

| Sequence | polyreactivity (PSR sort gate) |
| --- | --- |
| QVQLVESGGGLVQAGGSLRLSCAASGSISYRYAMGWYRQAPGKERELVAGISRSGGSTSYADSVKGRFTISRDNAKNTVYLQMNSLKPEDTAVYYCNRPSSLAWPWTGSFSRYDYWGQGTQVTVSS | low polyreactivity |
| QVQLVESGGGLVQAGGSLRLSCAASGSISYVNAMGWYRQAPGKERELVAAITGGGSTNYADSVKGRFTISRDNAKNTVYLQMNSLKPEDTAVYYCNSGDSTGEVIGDYWGQGTQVTVSS | low polyreactivity |
| QVQLVESGGGLVQAGGSLRLSCAASGSISYYAMGWYRQAPGKERELVAAISSSGGSTYYADSVKGRFTISRDNAKNTVYLQMNSLKPEDTAVYYCAAYGRYGAHTGYGSWGQGTQVTVSS | high polyreactivity |
| QVQLVESGGGLVQAGGSLRLSCAASGSIVIINTMGWYRQAPGKERELVAAISWGGTDTNYADSVKGRFTISRDNAKNTVYVQMNSLKPEDTAVYYCNTDQDLVRSYDYWGQGTQVTVSS | low polyreactivity |
| QVQLVESGGGLVQAGGSLRLSCAASGSIVTANAMAWYRPAPGKERELVAAITTSGTSTYYADSVKGRFTLSRDNAKNTVYLQMNSLKPEDTSVYYCNADKFYRAGSELDYWGQGTQVTVSS | high polyreactivity |
| QVQLVESGGGLVQAGGSLRLSCAASGSIVVKYDMSWYRQAPGKERELVAAISGSGGSTYYADSVKGRFTISRDNAKNTVYLQMNSVKPEDTAVYYCAADDYFYSGRYGFEYWGQGTQVTVSS | low polyreactivity |
| QVQLVESGGGLVQAGGSLRLSCAASGSIVVNNGMGWYRQAPGKERELVATISERGGGTYYADSVKGRFTISRDNAKNTVYLQMNSLKPEDTAVYYCAARVPRFYFVPLYYWGQGTQVTVSS | low polyreactivity |
| QVQLVESGGGLVQAGGSLRLSCAASGSIVWYNAMGWYRPAPGKERELVAAITWSGGSTYYADSVKGRFTISRDNAKNTVYLQMNSLKPEDTAVYYCAADVKRDRVWGGDYWGQGTQVTVSS | low polyreactivity |
| QVQLVESGGGLVQAGGSLRLSCAASGSIYNRYAMGSYRQAPRQERELVAAITQSTDSTYYADSVKGRITISRDNAMITVYLQMNSLKPEDTAVYYCAAYLVYYRPYAYGYWGQGTQVTVSS | low polyreactivity |
| QVQLVESGGGLVQAGGSLRLSCAASGSIYPNAMGWNRQAPGKERELVAAIRRSSGSTYADSVKGRFTISRDNAKNTVYLQMNSLKPEDTAVYYCAAEWFAQPVGYDYWGQGTQVTVSS | high polyreactivity |
| QVQLVESGGGLVQAGGSLRLSCAASGSIYPYNAIGLYRQAPGKERELVAAISYRGGRTYYADSVMGRFTISRDNAKNTVYLQKNSLKPEDTAVYYCNADSIYSARGWLYGYWGQGTQVTVSS | low polyreactivity |
| QVQLVESGGGLVQAGGSLRLSCAASGSIYRYAMGWYRQAPGKERELVAAINFNGGRTYYADSVKGRFTISRDNAKNTVYLQMNSLKPEDTAVYYCAAVRSSNQGGFDYWGHGTQVTVSS | high polyreactivity |
| QVQLVESGGGLVQAGGSLRLSCAASGSIYTHNAMGWSRQAPGKERELVAAISSGGSTNYADSVKGRFTISRDNAKNTVYLQMNSLKPEDTAVYYCAKSIDGWYWRRRRYDYWGQGTQVTVSS | low polyreactivity |
| QVQLVESGGGLVQAGGSLRLSCAASGSIYTNAMGRYRQAPGKERELVAAISWSGGRTYYADSVKGRFTISRDNAKNTVYLQMNILKPEDTAVYYCNTRGTRIASGHYYWGQGNQVTVSS | high polyreactivity |
| QVQLVESGGGLVQAGGSLRLSCAASGSIYTNAMGWYRQAPGKERELVAAISWSGGRTYYADSVKGRFTISRDNAKNTVYLQMNSLKPEDTAVYYCNTRGTRIASGHYYWGQGTQVTVSS | high polyreactivity |
| QVQLVESGGGLVQAGGSLRLSCAASGSIYTWYAMVWYRQAPGKERELVAAITRGGSTYADSVKGRFTISRDNAKNTVFLQMNSLKPEDTAVYYCATDLQPRSFLYWYNYWGQGTQVTVSS | low polyreactivity |
| QVQLVESGGGLVQAGGSLRLSCAASGSIYVYYGMGWYRQAPGKERELVAAISSGGSTHYADSVKGRFTISRDNAKNTVYLQMNSLKPEDTAVYYCAADRFFWLRSYPRYYYWGQGTQVTVSS | low polyreactivity |
| QVQLVESGGGLVQAGGSLRLSCAASGSIYWINTSMGWYIQAPGKERELVAAITWSSGGTYYADSVKGRFTISRDNAKKTVYLQMNSLKPEDTAVYYCAKVRFFWYRMGYWGQGTQVTVSS | high polyreactivity |
| QVQLVESGGGLVQAGGSLRLSCAASGSIYYAMGWYRQAPGKEREFVAAINSGGSTYYADSVKGRFTISRDNAKNTVYIQMNSLKPEDTAVYYCAKPTYRFYWGDFDYWGQGTQVTVSA | low polyreactivity |
| QVQLVESGGGLVQAGGSLRLSCAASGSIYYAMGWYRQAPGKESEFVAAINSGGSTYYADSVKGRFTISRDNAKNTVYLQMNSLKPEDTAVYYCAKPTYRFYWGDFDYWGQGTQVTVSS | low polyreactivity |
| QVQLVESGGGLVQAGGSLRLSCAASGSIYYTNAMGWYRQAPGKERELVAAIRWSGGRTYYADSVKGRFTISRDNAKNTVYLQMNSLKPEDTAVYYCNKVPRTPIPYKYGYWGQGTQVTVSS | high polyreactivity |

— the nanobody polyreactivity screen of Harvey et al. (2022)
